# According to paper PMC10153752, “Exo1 protects DNA nicks from ligation to promote crossover formation during meiosis”:
# T1: exo1-D173A (Saccharomyces cerevisiae, UniProt P39875 1-702, D173A)
# T1 sequence: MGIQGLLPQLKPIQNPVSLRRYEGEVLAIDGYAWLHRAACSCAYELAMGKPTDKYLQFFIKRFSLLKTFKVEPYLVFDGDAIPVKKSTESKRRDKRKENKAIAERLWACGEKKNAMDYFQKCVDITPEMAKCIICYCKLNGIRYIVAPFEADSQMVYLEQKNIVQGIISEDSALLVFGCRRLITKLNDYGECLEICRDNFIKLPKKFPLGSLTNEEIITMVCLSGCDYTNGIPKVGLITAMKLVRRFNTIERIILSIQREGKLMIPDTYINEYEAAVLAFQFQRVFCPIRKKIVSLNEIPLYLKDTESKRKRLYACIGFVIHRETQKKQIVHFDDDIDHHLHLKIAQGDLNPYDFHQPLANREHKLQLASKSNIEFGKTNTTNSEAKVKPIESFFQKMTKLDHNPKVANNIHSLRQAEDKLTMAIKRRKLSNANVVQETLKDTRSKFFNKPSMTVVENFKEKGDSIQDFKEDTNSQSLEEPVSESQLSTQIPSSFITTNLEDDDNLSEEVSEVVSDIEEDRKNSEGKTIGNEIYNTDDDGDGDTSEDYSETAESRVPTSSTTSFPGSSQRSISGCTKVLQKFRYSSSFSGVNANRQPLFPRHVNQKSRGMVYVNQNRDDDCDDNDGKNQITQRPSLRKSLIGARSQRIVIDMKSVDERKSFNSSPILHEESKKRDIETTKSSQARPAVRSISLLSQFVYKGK
# Biological target: T1, exo1-D173A
# Assay: filter binding; no added metal, 0.01 mM EDTA; 15 nM DNA, 35 mM NaCl, 20 mM Tris pH 7.5, 0.04 mg/ml BSA, 0.01 mM EDTA, 0.1 mM DTT, 60 ul, 10 min at 30 C; KOH-treated nitrocellulose filter binding
# Conditions: protein: recombinant; tags: FLAG; label: 5'-32P on AO3144 (8% labeled); nicked duplex with 19 nt 5' flap (AO3145 1-19); last 3 nt of AO3145 mismatch the 5' end of AO3144
binder,measurement,value
19 nt 5' flap substrate (AO3145 + AO3940 annealed to AO3144) (dsDNA) DNA 1: ACAGCTACCGAATTCTGACTTGCTAGGACATCTTTGCCCACGTTGACCC DNA 2: TCGATAGTCTCTAGATAGCATGTCCTAGCAAGTCAGAATTCGGTAGCGTG DNA 3: GGGTCAACGTGGGCAAAG,binding result,binds
